In PMC9377746 (Molecular Cancer Therapeutics, 2022):

B1: bexmarilimab (antibody, V domains shown)
VH: QVTLKESGPTLVKPTQTLTLTCSFSGFSLSTSGMGIGWIRQPPGKALEWLAHIWWDDDKRYNPALKSRLTISKDTSKNQVVLTMTNMDPVDTATYYCARHYGYDPYYAMDYWGQGTLVTVSS
VL: EIVLTQSPGTLSLSPGERATLSCTASSSVSSSYLHWYQQKPGKAPKLLIYRTSNLASGVPSRFSGSGSGTDYTLTISSLQPEDFATYYCHQYHRSPPTFGQGTKLEIK

Columns and labels:
[1] = biological target: human FcγRIIb (human) (UniProt P31994); test: SPR
[2] = biological target: human Clever-1 on cells and in tissue (Homo sapiens, UniProt Q9NY15); test: flow cytometry on cells
Sequence of human Clever-1 on cells and in tissue (Q9NY15 26-2570): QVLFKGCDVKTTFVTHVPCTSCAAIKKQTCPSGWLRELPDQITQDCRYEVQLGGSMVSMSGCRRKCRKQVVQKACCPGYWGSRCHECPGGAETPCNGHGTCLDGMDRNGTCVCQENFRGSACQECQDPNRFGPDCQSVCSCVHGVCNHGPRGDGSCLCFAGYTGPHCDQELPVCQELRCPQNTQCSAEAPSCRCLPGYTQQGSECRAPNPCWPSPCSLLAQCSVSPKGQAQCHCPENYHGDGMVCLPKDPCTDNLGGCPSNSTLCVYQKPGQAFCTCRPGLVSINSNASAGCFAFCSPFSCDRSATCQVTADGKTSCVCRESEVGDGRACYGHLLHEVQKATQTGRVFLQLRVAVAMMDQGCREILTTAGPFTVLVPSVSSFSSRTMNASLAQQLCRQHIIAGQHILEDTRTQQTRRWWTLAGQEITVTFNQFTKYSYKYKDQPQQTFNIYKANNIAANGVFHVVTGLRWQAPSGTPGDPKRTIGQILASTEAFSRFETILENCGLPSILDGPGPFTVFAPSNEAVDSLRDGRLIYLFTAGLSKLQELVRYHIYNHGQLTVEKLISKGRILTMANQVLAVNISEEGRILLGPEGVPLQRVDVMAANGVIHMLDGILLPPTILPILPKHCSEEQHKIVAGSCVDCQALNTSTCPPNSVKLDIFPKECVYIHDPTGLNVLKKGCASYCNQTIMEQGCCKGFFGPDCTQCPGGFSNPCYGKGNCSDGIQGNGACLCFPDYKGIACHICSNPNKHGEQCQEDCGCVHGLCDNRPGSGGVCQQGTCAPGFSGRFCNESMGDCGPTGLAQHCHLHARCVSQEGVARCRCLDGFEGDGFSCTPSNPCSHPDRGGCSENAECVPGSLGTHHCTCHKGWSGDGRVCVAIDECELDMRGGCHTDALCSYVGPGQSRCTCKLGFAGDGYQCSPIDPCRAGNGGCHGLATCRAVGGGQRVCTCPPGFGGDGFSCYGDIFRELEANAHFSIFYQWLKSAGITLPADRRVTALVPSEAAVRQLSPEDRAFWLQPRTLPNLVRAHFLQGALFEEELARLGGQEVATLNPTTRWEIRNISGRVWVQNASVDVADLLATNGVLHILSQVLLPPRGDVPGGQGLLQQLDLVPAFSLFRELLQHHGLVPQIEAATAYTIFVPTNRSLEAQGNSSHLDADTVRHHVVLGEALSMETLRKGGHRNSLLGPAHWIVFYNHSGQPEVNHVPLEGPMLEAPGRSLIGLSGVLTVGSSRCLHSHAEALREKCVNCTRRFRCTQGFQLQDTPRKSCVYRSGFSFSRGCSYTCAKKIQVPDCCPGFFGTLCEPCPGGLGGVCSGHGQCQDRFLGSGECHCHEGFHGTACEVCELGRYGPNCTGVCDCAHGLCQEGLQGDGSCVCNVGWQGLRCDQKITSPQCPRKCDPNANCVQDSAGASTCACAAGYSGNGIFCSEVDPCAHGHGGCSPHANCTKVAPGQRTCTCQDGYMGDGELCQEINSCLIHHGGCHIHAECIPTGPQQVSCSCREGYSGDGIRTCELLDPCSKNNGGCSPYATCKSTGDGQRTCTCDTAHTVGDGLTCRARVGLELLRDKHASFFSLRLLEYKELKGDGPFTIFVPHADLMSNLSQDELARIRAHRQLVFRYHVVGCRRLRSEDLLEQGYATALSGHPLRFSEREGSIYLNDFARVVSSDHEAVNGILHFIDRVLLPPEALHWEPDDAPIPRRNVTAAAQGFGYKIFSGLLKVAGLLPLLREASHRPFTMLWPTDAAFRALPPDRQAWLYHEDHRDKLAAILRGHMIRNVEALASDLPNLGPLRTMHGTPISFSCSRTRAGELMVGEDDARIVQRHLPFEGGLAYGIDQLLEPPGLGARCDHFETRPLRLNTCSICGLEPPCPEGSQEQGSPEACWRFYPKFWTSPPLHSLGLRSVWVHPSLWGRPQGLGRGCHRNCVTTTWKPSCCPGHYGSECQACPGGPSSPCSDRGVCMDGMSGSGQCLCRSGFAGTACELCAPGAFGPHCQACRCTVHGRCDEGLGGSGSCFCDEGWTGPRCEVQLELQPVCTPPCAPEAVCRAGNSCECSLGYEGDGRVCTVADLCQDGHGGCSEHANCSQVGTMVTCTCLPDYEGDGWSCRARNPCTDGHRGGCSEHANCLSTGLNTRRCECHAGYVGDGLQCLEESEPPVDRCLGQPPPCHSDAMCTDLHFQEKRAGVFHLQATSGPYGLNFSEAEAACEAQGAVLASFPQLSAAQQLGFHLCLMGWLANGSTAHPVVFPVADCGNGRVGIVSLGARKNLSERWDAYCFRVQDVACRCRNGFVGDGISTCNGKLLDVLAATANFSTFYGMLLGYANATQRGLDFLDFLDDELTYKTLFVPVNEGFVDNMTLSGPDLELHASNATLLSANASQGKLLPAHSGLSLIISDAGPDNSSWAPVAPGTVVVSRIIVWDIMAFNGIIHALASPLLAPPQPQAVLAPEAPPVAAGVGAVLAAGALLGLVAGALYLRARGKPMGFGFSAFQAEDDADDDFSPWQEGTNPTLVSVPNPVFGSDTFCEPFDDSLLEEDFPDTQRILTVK

[3] = biological target: purified human Clever-1 (Homo sapiens, UniProt Q9NY15); test: SPR
Sequence of purified human Clever-1 (Q9NY15 26-2570): as above

[4] = biological target: purified cynomolgus Clever-1 (Macaca fascicularis, UniProt A0A2K5VS84); test: SPR

Sequence of human FcγRIIb (human) (P31994 43-310): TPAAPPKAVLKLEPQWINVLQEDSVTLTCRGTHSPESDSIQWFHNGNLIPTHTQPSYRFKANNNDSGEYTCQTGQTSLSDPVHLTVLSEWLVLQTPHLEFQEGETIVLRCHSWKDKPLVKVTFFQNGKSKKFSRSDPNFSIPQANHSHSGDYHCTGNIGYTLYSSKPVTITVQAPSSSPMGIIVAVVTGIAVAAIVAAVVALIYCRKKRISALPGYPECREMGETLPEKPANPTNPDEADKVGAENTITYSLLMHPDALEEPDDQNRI

Molecule | Kd [1] | EC50 [2] | Kd [3] | Kd [4]
rituximab (antibody) | 5130 nM | – | – | –
bexmarilimab (antibody) | 11400 nM | – | – | –
B1 | – | 2.2 nM | 0.75 nM | 0.92 nM
